The target of data set [1] is lumazine synthase from Aquifex aeolicus, wild-type protein (AaLS-wt), C-terminal His6-tag (Aquifex aeolicus) (UniProt O66529). Briefly: native MS; 5 uM monomer in 150 mM ammonium acetate, 25 mM triethylammonium acetate, pH 7.8; modified qTOF, nano-electrospray, positive ion mode; subunit copy number of the cage.
Data set [2] has the same target. The data set can be described thus: cryo-EM structure; single-particle reconstruction; 20 mM Tris-HCl pH 7.8, 0.2 M NaCl, 5 mM EDTA; monomer 80, 80 and 300 uM; Titan Krios 300 kV.
The target of data set [3] is AaLS-neg (lumazine synthase from Aquifex aeolicus with R83E, T86E, T120E, Q123E), C-terminal His6-tag (Aquifex aeolicus) (UniProt O66529). Described as above.
Data set [4] deals with the molecule itself. Briefly: native MS; AaLS-neg pre-incubated in low ionic strength buffer: 10 mM ammonium acetate, pH 7.8; cage dissociated into smaller capsomers.
Data set [5] deals with the molecule itself. The data set can be described thus: native MS; 5 uM monomer in 150 mM ammonium acetate, 25 mM triethylammonium acetate, pH 7.8; modified qTOF, nano-electrospray, positive ion mode; subunit copy number of the cage.

“And” between values parts separate entries of the source, which are not always exact repeats. Equal values may be shown once.

As usually defined, the stoichiometry N is a count of units in the complex or per binding partner. As for “lumazine synthase from Aquifex aeolicus, wild-type protein (AaLS-wt), C-terminal His6-tag (from UniProt O66529 1-154) (enzyme)”, the stoichiometry N in data set [1] and in data set [2] was 60 each time.
In turn, “AaLS-neg (lumazine synthase from Aquifex aeolicus with R83E, T86E, T120E, Q123E), C-terminal His6-tag (from UniProt O66529 1-154)” displayed a stoichiometry N in data set [3] of 180.

B1: AaLS-neg lacking a His6-tag (pMG211_AaLS-neg_noHis) (other, Aquifex aeolicus, UniProt O66529 1-154, looked up)
chain: MEIYEGKLTAEGLRFGIVASRFNHALVDRLVEGAIDCIVRHGGREEDITLVRVPGSWEIPVAAGELARKEDIDAVIAIGVLIEGAEPHFDYIASEVSKGLANLSLELRKPITFGVITADELEEAIERAGTKHGNKGWEAALSAIEMANLFKSLR
notes: lumazine synthase, Aquifex aeolicus, with four lumenal residues mutated to glutamate; Made for native MS; 180-mer in 150 mM ammonium acetate; pentamers, 10-mers and 15-mers after low ionic strength; source: E. coli BL21-gold (DE3), purified (lysate heated at 85 °C, MonoQ anion exchange, SEC Sephacryl S-400); copies: 180
B1: the “stoichiometry N” value in data set [4] was 5 and 10 and 15; in data set [5], 180.

B2: AaLS-13 lacking a His6-tag (pMG211_AaLS-13_noHis) (other, Aquifex aeolicus, UniProt O66529 1-154, looked up)
chain: MEIYEGKLTAEGLRFGIVASRFNHALVGRLVEGAIDCIVRHGGREEDITLVCVPGSWEIPVAAGELARKEDIDAVIAIGVLIEGAEPHFDYIASEVSKGLANLSLELRKPISFGDITDDELEEAIECAGTEHGNKGWEAALSAIEMANLFKSLR
notes: lumazine synthase, Aquifex aeolicus, with the four mutations of AaLS-neg and seven more from directed evolution; Made for native MS; charge states not resolved, the copy number only estimated (240 to 420); source: E. coli BL21-gold (DE3), purified (ammonium sulphate, MonoQ anion exchange, SEC Sephacryl S-400; 3 mM DTT added)
Consider B2, for which the “stoichiometry N” value in data set [5] was 240 to 420.

Values taken from publication PMC5354205, “Structure and assembly of scalable porous protein cages” (Nature Communications, 2017).
